T1: IGSF8 (UniProt Q969P0 28-613, limits assumed)
T1 construct: whole, on cells
T1 sequence (looked up): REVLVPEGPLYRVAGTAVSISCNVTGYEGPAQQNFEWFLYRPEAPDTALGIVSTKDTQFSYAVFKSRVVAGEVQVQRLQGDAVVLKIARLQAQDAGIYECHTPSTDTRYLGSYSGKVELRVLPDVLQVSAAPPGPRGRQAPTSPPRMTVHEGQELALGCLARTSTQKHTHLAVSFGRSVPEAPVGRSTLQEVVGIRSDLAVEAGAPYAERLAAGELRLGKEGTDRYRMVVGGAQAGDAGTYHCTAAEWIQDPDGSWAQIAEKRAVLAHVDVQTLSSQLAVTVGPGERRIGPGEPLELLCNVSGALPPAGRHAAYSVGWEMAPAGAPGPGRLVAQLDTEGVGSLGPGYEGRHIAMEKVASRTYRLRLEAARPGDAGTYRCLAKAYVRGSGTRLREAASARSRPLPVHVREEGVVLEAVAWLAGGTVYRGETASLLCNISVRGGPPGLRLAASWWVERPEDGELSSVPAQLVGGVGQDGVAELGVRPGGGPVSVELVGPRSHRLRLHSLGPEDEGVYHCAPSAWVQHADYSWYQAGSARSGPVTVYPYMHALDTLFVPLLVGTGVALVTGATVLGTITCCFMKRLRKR

T2: CD151 (UniProt P48509 1-253, limits assumed)
T2 construct: whole, on cells
T2 sequence (looked up): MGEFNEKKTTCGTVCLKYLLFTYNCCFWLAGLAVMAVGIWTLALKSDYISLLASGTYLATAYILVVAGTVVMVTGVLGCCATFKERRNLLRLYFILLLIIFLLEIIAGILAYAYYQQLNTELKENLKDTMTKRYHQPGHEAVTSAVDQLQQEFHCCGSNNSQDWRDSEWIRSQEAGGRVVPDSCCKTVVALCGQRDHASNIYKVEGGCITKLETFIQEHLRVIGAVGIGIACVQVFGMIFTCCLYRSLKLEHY

T3: CD81 (UniProt P60033 1-236, limits assumed)
T3 construct: whole, on cells
T3 sequence (looked up): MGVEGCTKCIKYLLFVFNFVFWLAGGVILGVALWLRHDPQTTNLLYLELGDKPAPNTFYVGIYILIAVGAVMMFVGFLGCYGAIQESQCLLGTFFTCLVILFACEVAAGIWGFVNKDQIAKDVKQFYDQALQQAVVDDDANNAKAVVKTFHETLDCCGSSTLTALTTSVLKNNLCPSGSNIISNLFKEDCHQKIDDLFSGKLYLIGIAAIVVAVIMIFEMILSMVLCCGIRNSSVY

B1: Antibody of common light chain C11 (C11chicken) paired with the heavy chain against IGSF8 (antibody, V domains shown)
VH: AVTLDESGGGLQTPGGGLSLVCKASGFSISSYEMQWVRQAPGKGLEWVAGIDDDGSSRAYAPAVKGRATISRDNGQSTVRLQLNNLRAEDTGTYYCAKTIYAATLNAGEIDAWGHGTEVIVSS
VL: ALTQPSSVSANPGETVKITCSGGGSWYGSYYYGWYQQKSPGSAPVTLIYNNDKRPSDIPSRFSGSESGSTATLTITGVQAEDEAVYFCGGYDSTTTDMFGAGTTLTVL
notes: also called HC-IGSF8
B2: Antibody of common light chain C11 (C11chicken) paired with the heavy chain against CD63 (antibody, V domains shown)
VH: AVTLDESGGGLQTPGGALSLVCKASGFTFSDRGMHWVRQAPGKGLEWVAGIRSTGSFTLYGAAVKGRATISRDDGQSTLRLQLNNLRAEDTGTYYCAKSAGGYGCGRGWCGVDDIDAWGHGTEVIVSS
VL: ALTQPSSVSANPGETVKITCSGGGSWYGSYYYGWYQQKSPGSAPVTLIYNNDKRPSDIPSRFSGSESGSTATLTITGVQAEDEAVYFCGGYDSTTTDMFGAGTTLTVL
notes: also called HC-CD63
B3: Antibody of common light chain C11 (C11chicken) paired with the heavy chain against CD147 (antibody, V domains shown)
VH: AVTLDESGGGLQTPGGGLSLVCKASGFTFSSYAMYWVRQAPGKGLQWVAGISRDGSSGRYGAAVKGRATISRDNGQSTVRLQLNNLRAEDTATYFCAKSGYGDYTSADEIDAWGHGTEVIVSS
VL: ALTQPSSVSANPGETVKITCSGGGSWYGSYYYGWYQQKSPGSAPVTLIYNNDKRPSDIPSRFSGSESGSTATLTITGVQAEDEAVYFCGGYDSTTTDMFGAGTTLTVL
notes: also called HC-CD147
B4: Antibody of light chain D3 (D3chicken) paired with the heavy chain against IGSF8 (antibody, V domains shown)
VH: AVTLDESGGGLQTPGGGLSLVCKASGFSISSYEMQWVRQAPGKGLEWVAGIDDDGSSRAYAPAVKGRATISRDNGQSTVRLQLNNLRAEDTGTYYCAKTIYAATLNAGEIDAWGHGTEVIVSS
VL: ALTQPSSVSANPGETVKITCSGDDRWYGWYQQKSPGSAPVTLIYSNDKRPSDIPSRFSGSKSGSTGTLTITGVQADDEAVYFCGSRDSSYAGIFGAGTTLTVL
notes: also called HC-IGSF8
B5: Antibody of light chain E1 (E1chicken) paired with the heavy chain against IGSF8 (antibody, V domains shown)
VH: AVTLDESGGGLQTPGGGLSLVCKASGFSISSYEMQWVRQAPGKGLEWVAGIDDDGSSRAYAPAVKGRATISRDNGQSTVRLQLNNLRAEDTGTYYCAKTIYAATLNAGEIDAWGHGTEVIVSS
VL: ALTQPSSVSANPGETVKITCSGSSGSGYYGWYQQKSPGSAPVTLIYDNDKRPSDIPSRFSGSKSGSTGTLTITGVQADDEAVYFCGSADNNYTGIFGAGTTLTVL
notes: also called HC-IGSF8
B6: Antibody of light chain D3 (D3chicken) paired with the heavy chain against CD63 (antibody, V domains shown)
VH: AVTLDESGGGLQTPGGALSLVCKASGFTFSDRGMHWVRQAPGKGLEWVAGIRSTGSFTLYGAAVKGRATISRDDGQSTLRLQLNNLRAEDTGTYYCAKSAGGYGCGRGWCGVDDIDAWGHGTEVIVSS
VL: ALTQPSSVSANPGETVKITCSGDDRWYGWYQQKSPGSAPVTLIYSNDKRPSDIPSRFSGSKSGSTGTLTITGVQADDEAVYFCGSRDSSYAGIFGAGTTLTVL
notes: also called HC-CD63
B7: Antibody of light chain E1 (E1chicken) paired with the heavy chain against CD63 (antibody, V domains shown)
VH: AVTLDESGGGLQTPGGALSLVCKASGFTFSDRGMHWVRQAPGKGLEWVAGIRSTGSFTLYGAAVKGRATISRDDGQSTLRLQLNNLRAEDTGTYYCAKSAGGYGCGRGWCGVDDIDAWGHGTEVIVSS
VL: ALTQPSSVSANPGETVKITCSGSSGSGYYGWYQQKSPGSAPVTLIYDNDKRPSDIPSRFSGSKSGSTGTLTITGVQADDEAVYFCGSADNNYTGIFGAGTTLTVL
notes: also called HC-CD63
B8: Antibody of common light chain B9 (B9chicken) paired with the heavy chain against CD151 (antibody, V domains shown)
VH: AVTLDESGGGLQMPGGALSLVCKASGFTFSSYGMEWVRQAPGKGLEWVAGISSGGGSTDYGTAVKGRATISRDNGQSTVRLQLNNLRAEDTGTYFCAKSAYGGTWDGDDIDAWGHGTEVIVSS
VL: ALTQPSSVSANPGETVKITCSGGGSSNYYGWYQQKSPGSAPVTLIYGTNKRPSDIPSRFSGSKSGSTGTLTITGVQADDEAVYFCGSADSSTNAGIFGAGTTLTVL
notes: also called HC-CD151
B9: Antibody of common light chain B9 (B9chicken) paired with the heavy chain against CD63 (antibody, V domains shown)
VH: AVTLDESGGGLQTPGGALSLVCKASGFTFSDRGMHWVRQAPGKGLEWVAGIRSTGSFTLYGAAVKGRATISRDDGQSTLRLQLNNLRAEDTGTYYCAKSAGGYGCGRGWCGVDDIDAWGHGTEVIVSS
VL: ALTQPSSVSANPGETVKITCSGGGSSNYYGWYQQKSPGSAPVTLIYGTNKRPSDIPSRFSGSKSGSTGTLTITGVQADDEAVYFCGSADSSTNAGIFGAGTTLTVL
notes: also called HC-CD63
B10: Antibody of light chain E1 (E1chicken) paired with the heavy chain against CD151 (antibody, V domains shown)
VH: AVTLDESGGGLQMPGGALSLVCKASGFTFSSYGMEWVRQAPGKGLEWVAGISSGGGSTDYGTAVKGRATISRDNGQSTVRLQLNNLRAEDTGTYFCAKSAYGGTWDGDDIDAWGHGTEVIVSS
VL: ALTQPSSVSANPGETVKITCSGSSGSGYYGWYQQKSPGSAPVTLIYDNDKRPSDIPSRFSGSKSGSTGTLTITGVQADDEAVYFCGSADNNYTGIFGAGTTLTVL
notes: also called HC-CD151
B11: Antibody of common light chain B9 (B9chicken) paired with the heavy chain against CD147 (antibody, V domains shown)
VH: AVTLDESGGGLQTPGGGLSLVCKASGFTFSSYAMYWVRQAPGKGLQWVAGISRDGSSGRYGAAVKGRATISRDNGQSTVRLQLNNLRAEDTATYFCAKSGYGDYTSADEIDAWGHGTEVIVSS
VL: ALTQPSSVSANPGETVKITCSGGGSSNYYGWYQQKSPGSAPVTLIYGTNKRPSDIPSRFSGSKSGSTGTLTITGVQADDEAVYFCGSADSSTNAGIFGAGTTLTVL
notes: also called HC-CD147
B12: Antibody of light chain D3 (D3chicken) paired with the heavy chain against CD151 (antibody, V domains shown)
VH: AVTLDESGGGLQMPGGALSLVCKASGFTFSSYGMEWVRQAPGKGLEWVAGISSGGGSTDYGTAVKGRATISRDNGQSTVRLQLNNLRAEDTGTYFCAKSAYGGTWDGDDIDAWGHGTEVIVSS
VL: ALTQPSSVSANPGETVKITCSGDDRWYGWYQQKSPGSAPVTLIYSNDKRPSDIPSRFSGSKSGSTGTLTITGVQADDEAVYFCGSRDSSYAGIFGAGTTLTVL
notes: also called HC-CD151
B13: Antibody of common light chain B9 (B9chicken) paired with the heavy chain against CD81 (antibody, V domains shown)
VH: AVTLDESGGGLQTPGGALSLVCKASGFSIGDYNMGWVRQAPGKGLEWVAGIDAGGGTWRATAVKGRATISRDNGQSTVRLQLNNLRAEDTATYFCAKSTDSSANCCANSIDAWGHGTEVIVSS
VL: ALTQPSSVSANPGETVKITCSGGGSSNYYGWYQQKSPGSAPVTLIYGTNKRPSDIPSRFSGSKSGSTGTLTITGVQADDEAVYFCGSADSSTNAGIFGAGTTLTVL
notes: also called HC-CD81
B14: Antibody of common light chain C11 (C11chicken) paired with the heavy chain against CD151 (antibody, V domains shown)
VH: AVTLDESGGGLQMPGGALSLVCKASGFTFSSYGMEWVRQAPGKGLEWVAGISSGGGSTDYGTAVKGRATISRDNGQSTVRLQLNNLRAEDTGTYFCAKSAYGGTWDGDDIDAWGHGTEVIVSS
VL: ALTQPSSVSANPGETVKITCSGGGSWYGSYYYGWYQQKSPGSAPVTLIYNNDKRPSDIPSRFSGSESGSTATLTITGVQAEDEAVYFCGGYDSTTTDMFGAGTTLTVL
notes: also called HC-CD151
B15: Antibody of common light chain B9 (B9chicken) paired with the heavy chain against IGSF8 (antibody, V domains shown)
VH: AVTLDESGGGLQTPGGGLSLVCKASGFSISSYEMQWVRQAPGKGLEWVAGIDDDGSSRAYAPAVKGRATISRDNGQSTVRLQLNNLRAEDTGTYYCAKTIYAATLNAGEIDAWGHGTEVIVSS
VL: ALTQPSSVSANPGETVKITCSGGGSSNYYGWYQQKSPGSAPVTLIYGTNKRPSDIPSRFSGSKSGSTGTLTITGVQADDEAVYFCGSADSSTNAGIFGAGTTLTVL
notes: also called HC-IGSF8

Key:
IGSF8 = target: T1, IGSF8; assay: flow cytometry on cells transfected with the target; signal over mock-transfected cells (background = 1.0)
Excerpt: (§1) Antibodies were generated using the common light chains B9, F10, C11, and H11 paired with 8 different heavy chains. […] Binding is expressed as Signal:Background for binding to the molecular target of the heavy chain antibody (listed at top of Table 4). Expression is based on binding to cells expressing an Fc-binding protein (the ZZ domain of ProA) (ZZ) on their surface, enabling total antibody to bind and be measured. Detection was using flow cytometry with cells transfected to express the target protein. Background binding S:B is normalized to 1.0, using mock-transfected cells as background. The data in the table below illustrate that the light chains can be used with a variety of heavy chains and the antibody generated from a VH that can bind to the light chains B9 and F10 will function and bind to the target of interest.

[1] = target: T4, Fc-binding protein (the ZZ domain of ProA); assay: flow cytometry on cells expressing the Fc-binding ZZ domain on their surface; given as a measure of expression
T4 construct: domain: ZZ domain of ProA; the construct is not described
Excerpt: as §1

CD63 = target: T5, CD63 (UniProt P08962 2-238, limits assumed); assay: flow cytometry on cells transfected with the target; signal over mock-transfected cells (background = 1.0)
T5 construct: whole, on cells
Excerpt: as §1

CD151 = target: T2, CD151; assay: as above
Excerpt: as §1

CD81 = target: T3, CD81; assay: as above
Excerpt: as §1

| S:B Binding (IGSF8) | S:B Expression [1] | S:B Binding (CD63) | S:B Binding (CD151) | S:B Binding (CD81) | Binder |
| --- | --- | --- | --- | --- | --- |
| 5.5 S:B | 12 S:B | – | – | – | B1 |
| – | 8.8 S:B | 0.8 S:B | – | – | B2 |
| – | 16.6 S:B | – | – | – | B3 |
| 19.4 S:B | 3.2 S:B | – | – | – | B4 |
| 18.1 S:B | 2 S:B | – | – | – | B5 |
| – | 3.9 S:B | 20.6 S:B | – | – | B6 |
| – | 24.4 S:B | 31.8 S:B | – | – | B7 |
| – | 9.7 S:B | – | 27.4 S:B | – | B8 |
| – | 11.3 S:B | 2.7 S:B | – | – | B9 |
| – | 11.3 S:B | – | 28.8 S:B | – | B10 |
| – | 17 S:B | – | – | – | B11 |
| – | 6.5 S:B | – | 47.5 S:B | – | B12 |
| – | 10.8 S:B | – | – | 0.6 S:B | B13 |
| – | 11.5 S:B | – | 1.4 S:B | – | B14 |
| 1.7 S:B | 12.7 S:B | – | – | – | B15 |

Source: US20200262898A1 (INTEGRAL MOLECULAR, published 2020)
